Source: patent US20240035010, “COMPOSITIONS COMPRISING A VARIANT POLYPEPTIDE AND USES THEREOF” (Arbor Biotechnologies, Inc., published 2024)

What was measured:
Experiment in all cases: cell_activity; PAM 5'-ATTG-3'
Conditions in all cases: tags: pcDNA3.1 expression
[1] = target: T1, variant nuclease L38G combination (P14R, D32R, I61R, E311R, L38G)
T1 chain: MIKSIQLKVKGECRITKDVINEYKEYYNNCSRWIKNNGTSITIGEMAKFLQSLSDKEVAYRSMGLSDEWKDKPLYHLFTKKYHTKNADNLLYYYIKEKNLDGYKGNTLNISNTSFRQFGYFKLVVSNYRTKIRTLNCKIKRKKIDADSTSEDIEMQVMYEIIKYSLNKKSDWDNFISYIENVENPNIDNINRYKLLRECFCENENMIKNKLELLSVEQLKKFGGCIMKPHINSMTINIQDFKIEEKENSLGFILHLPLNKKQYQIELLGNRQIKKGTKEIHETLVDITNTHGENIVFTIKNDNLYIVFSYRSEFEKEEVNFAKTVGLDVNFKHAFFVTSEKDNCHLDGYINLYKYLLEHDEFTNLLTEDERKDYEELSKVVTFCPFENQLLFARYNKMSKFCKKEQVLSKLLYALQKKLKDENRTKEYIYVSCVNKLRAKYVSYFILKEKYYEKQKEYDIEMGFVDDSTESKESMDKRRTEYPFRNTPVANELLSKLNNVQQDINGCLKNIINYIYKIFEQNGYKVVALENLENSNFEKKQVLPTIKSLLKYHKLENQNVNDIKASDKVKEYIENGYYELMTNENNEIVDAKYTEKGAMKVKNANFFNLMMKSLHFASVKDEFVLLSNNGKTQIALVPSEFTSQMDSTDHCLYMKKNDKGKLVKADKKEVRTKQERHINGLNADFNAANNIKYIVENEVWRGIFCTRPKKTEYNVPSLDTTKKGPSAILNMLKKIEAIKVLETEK

[2] = target: T2, variant nuclease D590G combination (P14R, D32R, I61R, E311R, D590G)
T2 chain: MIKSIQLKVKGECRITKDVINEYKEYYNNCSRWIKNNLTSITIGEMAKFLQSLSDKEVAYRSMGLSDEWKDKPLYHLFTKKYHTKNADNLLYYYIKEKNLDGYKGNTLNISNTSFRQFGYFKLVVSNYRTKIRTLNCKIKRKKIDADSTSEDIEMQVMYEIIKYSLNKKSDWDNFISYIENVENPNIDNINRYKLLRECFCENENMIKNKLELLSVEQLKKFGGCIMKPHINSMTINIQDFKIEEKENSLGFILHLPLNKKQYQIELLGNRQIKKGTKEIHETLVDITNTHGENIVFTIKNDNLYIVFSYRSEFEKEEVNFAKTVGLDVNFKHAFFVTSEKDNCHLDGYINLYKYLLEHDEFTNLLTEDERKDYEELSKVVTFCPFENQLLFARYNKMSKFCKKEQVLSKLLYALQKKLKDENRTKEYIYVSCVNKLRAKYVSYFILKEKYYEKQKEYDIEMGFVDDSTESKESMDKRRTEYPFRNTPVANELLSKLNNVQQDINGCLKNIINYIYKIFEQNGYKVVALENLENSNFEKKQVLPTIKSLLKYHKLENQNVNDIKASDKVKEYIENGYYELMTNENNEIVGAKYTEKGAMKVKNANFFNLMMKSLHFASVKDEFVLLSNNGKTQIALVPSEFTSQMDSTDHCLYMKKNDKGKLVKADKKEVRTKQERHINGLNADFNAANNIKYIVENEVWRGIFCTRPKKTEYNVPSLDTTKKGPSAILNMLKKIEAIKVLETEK

[3] = target: T3, variant nuclease E736G combination (P14R, D32R, I61R, E311R, E736G)
T3 chain: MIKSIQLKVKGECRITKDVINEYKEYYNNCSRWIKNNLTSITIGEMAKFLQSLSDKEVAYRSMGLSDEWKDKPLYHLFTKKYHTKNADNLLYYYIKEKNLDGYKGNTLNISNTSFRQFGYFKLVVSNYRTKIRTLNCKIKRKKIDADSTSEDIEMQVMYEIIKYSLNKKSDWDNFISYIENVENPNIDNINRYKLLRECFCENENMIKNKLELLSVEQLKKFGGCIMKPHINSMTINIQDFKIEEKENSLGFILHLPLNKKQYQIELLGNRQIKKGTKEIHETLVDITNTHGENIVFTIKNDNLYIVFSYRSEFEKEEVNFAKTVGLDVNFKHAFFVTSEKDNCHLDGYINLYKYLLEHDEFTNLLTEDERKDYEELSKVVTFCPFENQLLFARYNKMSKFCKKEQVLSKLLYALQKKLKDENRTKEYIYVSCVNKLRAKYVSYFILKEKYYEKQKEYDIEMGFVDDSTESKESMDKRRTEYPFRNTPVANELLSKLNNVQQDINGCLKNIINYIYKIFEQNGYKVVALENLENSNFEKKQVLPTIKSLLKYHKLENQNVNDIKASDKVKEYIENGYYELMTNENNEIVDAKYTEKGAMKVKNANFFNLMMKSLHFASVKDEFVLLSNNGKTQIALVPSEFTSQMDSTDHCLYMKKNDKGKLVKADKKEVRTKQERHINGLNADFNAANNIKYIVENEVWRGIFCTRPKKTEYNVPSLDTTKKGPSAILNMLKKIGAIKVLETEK

B1: EMX1 crRNA ; EMX1 target (ssRNA ; dsDNA)
RNA: CUUGUUGUAUAUGUCCUUUUAUAGGUAUUAAACAACCCGCCGCUUCCUGAGCCAUC
DNA 1: CCGCCGCTTCCTGAGCCATC
DNA 2: GATGGCTCAGGAAGCGGCGG
Q: Which indel editing activity [1] does the source give for B1 here?
A: 0.16 fold of WT

Q: What about the indel editing activity [2] of the same binder?
A: 7.43 fold of WT

Q: What about the indel editing activity [3] of the same binder?
A: 10.1 fold of WT
